Assay results: the supplement of paper PMC9112550, “Optimization of the antimicrobial peptide Bac7 by deep mutational scanning” (BMC Biology, 2022)

System: Escherichia coli TOP10
Experiment: shrunken log2 fold change of peptide-encoding DNA abundance (4.5 h post-induction vs induction); higher = less antimicrobial activity (less host growth inhibition)
Details: time post-induction: 4.5 h; library: site-saturation at positions 5, 18, 19, 20
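Further: peptides expressed intracellularly from a pBAD plasmid library in pooled LB shake-flask culture, induced with 0.3% L-arabinose, DNA abundance read by NGS, three biological replicates, DESeq2 with apeglm shrinkage.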

Row | Sequence | shrunken log2 fold change
1 | RRIRCRPPRLPRPRPRPKGLPRP | -0.134
2 | RRIRCRPPRLPRPRPRPKILPRP | -0.0835
3 | RRIRCRPPRLPRPRPRPKINPRP | -0.645
4 | RRIRCRPPRLPRPRPRPKIPPRP | -0.284
5 | RRIRCRPPRLPRPRPRPKKDPRP | -0.000499
6 | RRIRCRPPRLPRPRPRPKKGPRP | -0.129
7 | RRIRCRPPRLPRPRPRPKKLPRP | 0.063
8 | RRIRCRPPRLPRPRPRPKKQPRP | 0.155
9 | RRIRCRPPRLPRPRPRPKLFPRP | 0.132
10 | RRIRCRPPRLPRPRPRPKLSPRP | 0.22
11 | RRIRCRPPRLPRPRPRPKLYPRP | -0.38
12 | RRIRCRPPRLPRPRPRPKMSPRP | 0.157
13 | RRIRCRPPRLPRPRPRPKNLPRP | -0.292
14 | RRIRCRPPRLPRPRPRPKNNPRP | -0.188
15 | RRIRCRPPRLPRPRPRPKNYPRP | -0.676
16 | RRIRCRPPRLPRPRPRPKPRPRP | 0.749
17 | RRIRCRPPRLPRPRPRPKQAPRP | -0.0334
18 | RRIRCRPPRLPRPRPRPKRCPRP | -0.00852
19 | RRIRCRPPRLPRPRPRPKRPPRP | 0.158
20 | RRIRCRPPRLPRPRPRPKSQPRP | 0.276
21 | RRIRCRPPRLPRPRPRPKVRPRP | 0.195
22 | RRIRCRPPRLPRPRPRPKWIPRP | -0.366
23 | RRIRCRPPRLPRPRPRPKYPPRP | -0.196
24 | RRIRCRPPRLPRPRPRPLEKPRP | -0.072
25 | RRIRCRPPRLPRPRPRPLELPRP | 0.172

Row | Sequence | shrunken log2 fold change
26 | RRIRCRPPRLPRPRPRPLFDPRP | -0.426
27 | RRIRCRPPRLPRPRPRPLFRPRP | -0.283
28 | RRIRCRPPRLPRPRPRPLGMPRP | -0.433
29 | RRIRCRPPRLPRPRPRPLHDPRP | 0.0221
30 | RRIRCRPPRLPRPRPRPLIVPRP | -0.596
31 | RRIRCRPPRLPRPRPRPLKMPRP | -0.365
32 | RRIRCRPPRLPRPRPRPLMFPRP | -0.433
33 | RRIRCRPPRLPRPRPRPLNCPRP | -0.279
34 | RRIRCRPPRLPRPRPRPLPKPRP | 0.258
35 | RRIRCRPPRLPRPRPRPLPNPRP | -0.0586
36 | RRIRCRPPRLPRPRPRPLQNPRP | -0.0876
37 | RRIRCRPPRLPRPRPRPLQVPRP | -0.481
38 | RRIRCRPPRLPRPRPRPLSWPRP | 0.513
39 | RRIRCRPPRLPRPRPRPLVIPRP | -0.401
40 | RRIRCRPPRLPRPRPRPLVMPRP | -0.0664
41 | RRIRCRPPRLPRPRPRPLWGPRP | -0.26
42 | RRIRCRPPRLPRPRPRPLWQPRP | -0.147
43 | RRIRCRPPRLPRPRPRPLYKPRP | -0.275
44 | RRIRCRPPRLPRPRPRPMAFPRP | -0.22
45 | RRIRCRPPRLPRPRPRPMCAPRP | 0.0886
46 | RRIRCRPPRLPRPRPRPMCKPRP | -0.109
47 | RRIRCRPPRLPRPRPRPMDAPRP | -0.0146
48 | RRIRCRPPRLPRPRPRPMDNPRP | -0.411
49 | RRIRCRPPRLPRPRPRPMENPRP | 0.0267
50 | RRIRCRPPRLPRPRPRPMFIPRP | -1.16

Row | Sequence | shrunken log2 fold change
51 | RRIRCRPPRLPRPRPRPMFTPRP | -0.497
52 | RRIRCRPPRLPRPRPRPMFWPRP | -0.327
53 | RRIRCRPPRLPRPRPRPMHKPRP | -0.203
54 | RRIRCRPPRLPRPRPRPMKAPRP | -0.173
55 | RRIRCRPPRLPRPRPRPMPSPRP | 2.8
56 | RRIRCRPPRLPRPRPRPMQRPRP | 0.0282
57 | RRIRCRPPRLPRPRPRPMRIPRP | 0.497
58 | RRIRCRPPRLPRPRPRPMTAPRP | 0.0275
59 | RRIRCRPPRLPRPRPRPMTRPRP | -0.275
60 | RRIRCRPPRLPRPRPRPMVGPRP | -0.00233
61 | RRIRCRPPRLPRPRPRPMWHPRP | -0.147
62 | RRIRCRPPRLPRPRPRPMWIPRP | 0.085
63 | RRIRCRPPRLPRPRPRPMYLPRP | -0.464
64 | RRIRCRPPRLPRPRPRPMYNPRP | -0.535
65 | RRIRCRPPRLPRPRPRPNATPRP | 0.382
66 | RRIRCRPPRLPRPRPRPNEAPRP | 0.00978
67 | RRIRCRPPRLPRPRPRPNEEPRP | -0.00783
68 | RRIRCRPPRLPRPRPRPNERPRP | 0.0333
69 | RRIRCRPPRLPRPRPRPNEWPRP | 0.0357
70 | RRIRCRPPRLPRPRPRPNFDPRP | -0.179
71 | RRIRCRPPRLPRPRPRPNFHPRP | -0.259
72 | RRIRCRPPRLPRPRPRPNFKPRP | -0.21
73 | RRIRCRPPRLPRPRPRPNFTPRP | -0.158
74 | RRIRCRPPRLPRPRPRPNFWPRP | -0.136
75 | RRIRCRPPRLPRPRPRPNGCPRP | -0.0116

Row | Sequence | shrunken log2 fold change
76 | RRIRCRPPRLPRPRPRPNGGPRP | -0.00453
77 | RRIRCRPPRLPRPRPRPNHRPRP | -0.233
78 | RRIRCRPPRLPRPRPRPNIEPRP | -0.279
79 | RRIRCRPPRLPRPRPRPNINPRP | -0.181
80 | RRIRCRPPRLPRPRPRPNIYPRP | -0.588
81 | RRIRCRPPRLPRPRPRPNLWPRP | 0.00489
82 | RRIRCRPPRLPRPRPRPNMKPRP | -0.769
83 | RRIRCRPPRLPRPRPRPNMTPRP | -0.229
84 | RRIRCRPPRLPRPRPRPNMYPRP | -0.916
85 | RRIRCRPPRLPRPRPRPNPQPRP | -0.359
86 | RRIRCRPPRLPRPRPRPNPRPRP | 0.378
87 | RRIRCRPPRLPRPRPRPNQCPRP | 2.64
88 | RRIRCRPPRLPRPRPRPNRWPRP | 0.0409
89 | RRIRCRPPRLPRPRPRPNTPPRP | -0.345
90 | RRIRCRPPRLPRPRPRPNVLPRP | -0.464
91 | RRIRCRPPRLPRPRPRPNVRPRP | -0.000423
92 | RRIRCRPPRLPRPRPRPNYIPRP | -0.84
93 | RRIRCRPPRLPRPRPRPPAQPRP | 1.18
94 | RRIRCRPPRLPRPRPRPPCLPRP | -0.199
95 | RRIRCRPPRLPRPRPRPPCQPRP | 0.0248
96 | RRIRCRPPRLPRPRPRPPCTPRP | -0.0939
97 | RRIRCRPPRLPRPRPRPPDTPRP | 0.269
98 | RRIRCRPPRLPRPRPRPPECPRP | 0.131
99 | RRIRCRPPRLPRPRPRPPEYPRP | -0.319
100 | RRIRCRPPRLPRPRPRPPFTPRP | -0.15

Row | Sequence | shrunken log2 fold change
101 | RRIRCRPPRLPRPRPRPPGGPRP | 0.539
102 | RRIRCRPPRLPRPRPRPPGLPRP | 0.72
103 | RRIRCRPPRLPRPRPRPPHGPRP | 0.499
104 | RRIRCRPPRLPRPRPRPPHPPRP | 0.339
105 | RRIRCRPPRLPRPRPRPPKIPRP | 0.277
106 | RRIRCRPPRLPRPRPRPPKMPRP | 0.222
107 | RRIRCRPPRLPRPRPRPPLIPRP | -0.000572
108 | RRIRCRPPRLPRPRPRPPPDPRP | 1.26
109 | RRIRCRPPRLPRPRPRPPQRPRP | 0.94
110 | RRIRCRPPRLPRPRPRPPREPRP | 1.1
111 | RRIRCRPPRLPRPRPRPPRFPRP | 1.34
112 | RRIRCRPPRLPRPRPRPPRPPRP | 0.957
113 | RRIRCRPPRLPRPRPRPPSKPRP | 0.133
114 | RRIRCRPPRLPRPRPRPPSPPRP | 0.724
115 | RRIRCRPPRLPRPRPRPPTAPRP | 0.272
116 | RRIRCRPPRLPRPRPRPPTDPRP | 0.298
117 | RRIRCRPPRLPRPRPRPPTVPRP | 0.202
118 | RRIRCRPPRLPRPRPRPPYEPRP | -0.306
119 | RRIRCRPPRLPRPRPRPQEVPRP | 0.144
120 | RRIRCRPPRLPRPRPRPQGSPRP | 0.0401
121 | RRIRCRPPRLPRPRPRPQGYPRP | -0.0448
122 | RRIRCRPPRLPRPRPRPQKTPRP | -0.162
123 | RRIRCRPPRLPRPRPRPQKWPRP | -0.568
124 | RRIRCRPPRLPRPRPRPQKYPRP | -0.698
125 | RRIRCRPPRLPRPRPRPQLGPRP | -0.00405

Row | Sequence | shrunken log2 fold change
126 | RRIRCRPPRLPRPRPRPQLWPRP | 0.366
127 | RRIRCRPPRLPRPRPRPQMDPRP | -0.248
128 | RRIRCRPPRLPRPRPRPQPRPRP | 0.745
129 | RRIRCRPPRLPRPRPRPQQRPRP | 0.0521
130 | RRIRCRPPRLPRPRPRPQRSPRP | 2.66
131 | RRIRCRPPRLPRPRPRPQSCPRP | 0.0547
132 | RRIRCRPPRLPRPRPRPQTQPRP | 0.308
133 | RRIRCRPPRLPRPRPRPQTTPRP | -0.155
134 | RRIRCRPPRLPRPRPRPQYIPRP | -0.738
135 | RRIRCRPPRLPRPRPRPRCLPRP | -0.32
136 | RRIRCRPPRLPRPRPRPRFKPRP | -0.00257
137 | RRIRCRPPRLPRPRPRPRFSPRP | -0.289
138 | RRIRCRPPRLPRPRPRPRGKPRP | 0.777
139 | RRIRCRPPRLPRPRPRPRGLPRP | 0.331
140 | RRIRCRPPRLPRPRPRPRGNPRP | 0.0747
141 | RRIRCRPPRLPRPRPRPRHKPRP | -0.265
142 | RRIRCRPPRLPRPRPRPRKMPRP | -0.00382
143 | RRIRCRPPRLPRPRPRPRKWPRP | -0.0179
144 | RRIRCRPPRLPRPRPRPRKYPRP | -0.458
145 | RRIRCRPPRLPRPRPRPRLEPRP | 0.299
146 | RRIRCRPPRLPRPRPRPRNTPRP | 0.855
147 | RRIRCRPPRLPRPRPRPRNVPRP | -0.156
148 | RRIRCRPPRLPRPRPRPRPRPRP | 0.83
149 | RRIRCRPPRLPRPRPRPRPVPRP | 0.766
150 | RRIRCRPPRLPRPRPRPRRLPRP | 0.133
